Test results: patent US20260015399A1 (Boehringer Ingelheim, published 2026)
*1 amine or outer side, *2 acyl side, *3 side chain or, on linkers, in order; H or OH if unused. Side-chain parts run from the residue outwards. The star is where a group is joined. C18 diacid = O=C(O)CCCCCCCCCCCCCCCCC(=O)*; γGlu = O=C(O)[C@H](CCC(=O)[*:2])N[*:1]; Isovaleryl = CC(C)CC(=O)*; Ahx = NCCCCCC(=O)O

T1: human NPY5 receptor (human, UniProt Q15761 1-445)
T1 sequence (looked up): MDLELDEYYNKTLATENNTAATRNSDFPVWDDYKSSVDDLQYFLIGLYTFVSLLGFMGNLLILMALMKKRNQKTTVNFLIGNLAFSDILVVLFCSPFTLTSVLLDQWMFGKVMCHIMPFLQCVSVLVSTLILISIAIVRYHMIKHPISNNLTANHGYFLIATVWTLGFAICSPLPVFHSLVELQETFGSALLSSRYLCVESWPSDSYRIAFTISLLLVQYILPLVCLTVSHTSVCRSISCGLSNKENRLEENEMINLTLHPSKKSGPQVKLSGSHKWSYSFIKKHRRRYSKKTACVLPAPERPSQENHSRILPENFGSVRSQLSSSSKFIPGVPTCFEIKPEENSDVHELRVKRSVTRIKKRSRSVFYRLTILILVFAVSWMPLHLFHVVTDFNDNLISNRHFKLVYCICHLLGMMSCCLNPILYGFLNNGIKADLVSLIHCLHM

T2: human NPY1 receptor (human, UniProt P25929 1-384)
T2 sequence (looked up): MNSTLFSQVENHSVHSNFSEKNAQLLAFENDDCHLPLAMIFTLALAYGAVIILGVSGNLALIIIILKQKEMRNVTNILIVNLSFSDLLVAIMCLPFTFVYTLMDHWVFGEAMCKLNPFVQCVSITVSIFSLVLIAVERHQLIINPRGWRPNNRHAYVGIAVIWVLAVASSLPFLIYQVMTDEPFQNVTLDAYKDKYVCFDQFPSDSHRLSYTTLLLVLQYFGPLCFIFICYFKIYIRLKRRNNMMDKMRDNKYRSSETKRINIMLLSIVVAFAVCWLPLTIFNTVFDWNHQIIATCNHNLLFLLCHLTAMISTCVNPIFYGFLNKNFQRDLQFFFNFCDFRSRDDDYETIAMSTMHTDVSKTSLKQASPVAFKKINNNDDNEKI

T3: human NPY2 receptor (human, UniProt P49146 1-381)
T3 sequence (looked up): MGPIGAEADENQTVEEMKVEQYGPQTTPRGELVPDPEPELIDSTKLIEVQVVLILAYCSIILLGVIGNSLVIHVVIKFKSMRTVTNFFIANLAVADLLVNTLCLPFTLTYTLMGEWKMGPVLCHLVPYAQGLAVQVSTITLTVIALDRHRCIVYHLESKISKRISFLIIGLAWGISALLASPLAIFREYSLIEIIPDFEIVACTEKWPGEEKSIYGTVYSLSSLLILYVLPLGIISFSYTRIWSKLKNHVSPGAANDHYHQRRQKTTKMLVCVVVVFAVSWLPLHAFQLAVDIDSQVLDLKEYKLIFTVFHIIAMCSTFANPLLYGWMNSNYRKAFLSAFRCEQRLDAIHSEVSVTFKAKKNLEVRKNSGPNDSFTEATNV


Key:
[1] = molecular target: T1, human NPY5 receptor; test: cell-based or functional assay
[2] = molecular target: human NPY4 receptor (human, UniProt P50391 1-375); test: cell-based or functional assay
human NPY4 receptor, sequence (P50391 whole entry): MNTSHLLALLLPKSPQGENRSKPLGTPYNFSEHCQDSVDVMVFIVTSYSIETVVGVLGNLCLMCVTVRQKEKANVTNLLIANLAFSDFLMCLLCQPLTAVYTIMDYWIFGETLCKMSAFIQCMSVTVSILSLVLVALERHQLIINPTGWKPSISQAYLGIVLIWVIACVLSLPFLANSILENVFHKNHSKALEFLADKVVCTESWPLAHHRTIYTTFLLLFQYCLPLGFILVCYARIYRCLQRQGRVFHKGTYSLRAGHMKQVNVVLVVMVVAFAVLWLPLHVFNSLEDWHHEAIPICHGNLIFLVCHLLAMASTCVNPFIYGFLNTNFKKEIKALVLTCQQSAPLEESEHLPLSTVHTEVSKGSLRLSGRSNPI

[3] = molecular target: T2, human NPY1 receptor; test: cell-based or functional assay
[4] = molecular target: T3, human NPY2 receptor; test: cell-based or functional assay
[5] = molecular target: T3, human NPY2 receptor; test: RLB: displacement of 125I-PYY(1-36) from hNPY2R membranes

EC50, HTRF cAMP Gi assay [1] | EC50, HTRF cAMP Gi assay [2] | EC50, HTRF cAMP Gi assay [3] | EC50, HTRF cAMP Gi assay [4] | Ki [5] | Binder
> 5000 nM | > 5000 nM | > 5000 nM | 0.344 nM | 2.91 nM | Isovaleryl-APEK([Ahx-γGlu-C18 diacid])PEEAATPEELQRYYVSLRHYYNWLTRQRY-NH2 (SMILES CC(C)CC(=O)N[C@@H](C)C(=O)N1CCC[C@H]1C(=O)N[C@@H](CCC(=O)O)C(=O)N[C@@H](CCCCNC(=O)CCCCCNC(=O)CC[C@H](NC(=O)CCCCCCCCCCCCCCCCC(=O)O)C(=O)O)C(=O)N1CCC[C@H]1C(=O)N[C@@H](CCC(=O)O)C(=O)N[C@@H](CCC(=O)O)C(=O)N[C@@H](C)C(=O)N[C@@H](C)C(=O)N[C@H](C(=O)N1CCC[C@H]1C(=O)N[C@@H](CCC(=O)O)C(=O)N[C@@H](CCC(=O)O)C(=O)N[C@@H](CC(C)C)C(=O)N[C@@H](CCC(N)=O)C(=O)N[C@@H](CCCNC(=N)N)C(=O)N[C@@H](Cc1ccc(O)cc1)C(=O)N[C@@H](Cc1ccc(O)cc1)C(=O)N[C@H](C(=O)N[C@@H](CO)C(=O)N[C@@H](CC(C)C)C(=O)N[C@@H](CCCNC(=N)N)C(=O)N[C@@H](Cc1c[nH]cn1)C(=O)N[C@@H](Cc1ccc(O)cc1)C(=O)N[C@@H](Cc1ccc(O)cc1)C(=O)N[C@@H](CC(N)=O)C(=O)N[C@@H](Cc1c[nH]c2ccccc12)C(=O)N[C@@H](CC(C)C)C(=O)N[C@H](C(=O)N[C@@H](CCCNC(=N)N)C(=O)N[C@@H](CCC(N)=O)C(=O)N[C@@H](CCCNC(=N)N)C(=O)N[C@@H](Cc1ccc(O)cc1)C(N)=O)[C@@H](C)O)C(C)C)[C@@H](C)O) [Compound 128]
> 5000 nM | > 5000 nM | > 5000 nM | 0.232 nM | 0.64 nM | Isovaleryl-APEK([Ahx-γGlu-C18 diacid])PEADATPEEIQRYYVALRHYYNWLTRQRY-NH2 (SMILES CC[C@H](C)[C@H](NC(=O)[C@H](CCC(=O)O)NC(=O)[C@H](CCC(=O)O)NC(=O)[C@@H]1CCCN1C(=O)[C@@H](NC(=O)[C@H](C)NC(=O)[C@H](CC(=O)O)NC(=O)[C@H](C)NC(=O)[C@H](CCC(=O)O)NC(=O)[C@@H]1CCCN1C(=O)[C@H](CCCCNC(=O)CCCCCNC(=O)CC[C@H](NC(=O)CCCCCCCCCCCCCCCCC(=O)O)C(=O)O)NC(=O)[C@H](CCC(=O)O)NC(=O)[C@@H]1CCCN1C(=O)[C@H](C)NC(=O)CC(C)C)[C@@H](C)O)C(=O)N[C@@H](CCC(N)=O)C(=O)N[C@@H](CCCNC(=N)N)C(=O)N[C@@H](Cc1ccc(O)cc1)C(=O)N[C@@H](Cc1ccc(O)cc1)C(=O)N[C@H](C(=O)N[C@@H](C)C(=O)N[C@@H](CC(C)C)C(=O)N[C@@H](CCCNC(=N)N)C(=O)N[C@@H](Cc1c[nH]cn1)C(=O)N[C@@H](Cc1ccc(O)cc1)C(=O)N[C@@H](Cc1ccc(O)cc1)C(=O)N[C@@H](CC(N)=O)C(=O)N[C@@H](Cc1c[nH]c2ccccc12)C(=O)N[C@@H](CC(C)C)C(=O)N[C@H](C(=O)N[C@@H](CCCNC(=N)N)C(=O)N[C@@H](CCC(N)=O)C(=O)N[C@@H](CCCNC(=N)N)C(=O)N[C@@H](Cc1ccc(O)cc1)C(N)=O)[C@@H](C)O)C(C)C) [Compound 184]
> 5000 nM | > 5000 nM | > 5000 nM | 0.331 nM | 3.42 nM | Isovaleryl-APEK([Ahx-γGlu-C18 diacid])PEEEASPEEIQRYYVSLRHYYNWLTRQRY-NH2 (SMILES CC[C@H](C)[C@H](NC(=O)[C@H](CCC(=O)O)NC(=O)[C@H](CCC(=O)O)NC(=O)[C@@H]1CCCN1C(=O)[C@H](CO)NC(=O)[C@H](C)NC(=O)[C@H](CCC(=O)O)NC(=O)[C@H](CCC(=O)O)NC(=O)[C@H](CCC(=O)O)NC(=O)[C@@H]1CCCN1C(=O)[C@H](CCCCNC(=O)CCCCCNC(=O)CC[C@H](NC(=O)CCCCCCCCCCCCCCCCC(=O)O)C(=O)O)NC(=O)[C@H](CCC(=O)O)NC(=O)[C@@H]1CCCN1C(=O)[C@H](C)NC(=O)CC(C)C)C(=O)N[C@@H](CCC(N)=O)C(=O)N[C@@H](CCCNC(=N)N)C(=O)N[C@@H](Cc1ccc(O)cc1)C(=O)N[C@@H](Cc1ccc(O)cc1)C(=O)N[C@H](C(=O)N[C@@H](CO)C(=O)N[C@@H](CC(C)C)C(=O)N[C@@H](CCCNC(=N)N)C(=O)N[C@@H](Cc1c[nH]cn1)C(=O)N[C@@H](Cc1ccc(O)cc1)C(=O)N[C@@H](Cc1ccc(O)cc1)C(=O)N[C@@H](CC(N)=O)C(=O)N[C@@H](Cc1c[nH]c2ccccc12)C(=O)N[C@@H](CC(C)C)C(=O)N[C@H](C(=O)N[C@@H](CCCNC(=N)N)C(=O)N[C@@H](CCC(N)=O)C(=O)N[C@@H](CCCNC(=N)N)C(=O)N[C@@H](Cc1ccc(O)cc1)C(N)=O)[C@@H](C)O)C(C)C) [Compound 193]
> 5000 nM | > 5000 nM | > 5000 nM | 0.243 nM | 2.18 nM | Isovaleryl-APEK([Ahx-γGlu-C18 diacid])PEEAASPEEIQRYYVSLRHYYNWLTRQRY-NH2 (SMILES CC[C@H](C)[C@H](NC(=O)[C@H](CCC(=O)O)NC(=O)[C@H](CCC(=O)O)NC(=O)[C@@H]1CCCN1C(=O)[C@H](CO)NC(=O)[C@H](C)NC(=O)[C@H](C)NC(=O)[C@H](CCC(=O)O)NC(=O)[C@H](CCC(=O)O)NC(=O)[C@@H]1CCCN1C(=O)[C@H](CCCCNC(=O)CCCCCNC(=O)CC[C@H](NC(=O)CCCCCCCCCCCCCCCCC(=O)O)C(=O)O)NC(=O)[C@H](CCC(=O)O)NC(=O)[C@@H]1CCCN1C(=O)[C@H](C)NC(=O)CC(C)C)C(=O)N[C@@H](CCC(N)=O)C(=O)N[C@@H](CCCNC(=N)N)C(=O)N[C@@H](Cc1ccc(O)cc1)C(=O)N[C@@H](Cc1ccc(O)cc1)C(=O)N[C@H](C(=O)N[C@@H](CO)C(=O)N[C@@H](CC(C)C)C(=O)N[C@@H](CCCNC(=N)N)C(=O)N[C@@H](Cc1c[nH]cn1)C(=O)N[C@@H](Cc1ccc(O)cc1)C(=O)N[C@@H](Cc1ccc(O)cc1)C(=O)N[C@@H](CC(N)=O)C(=O)N[C@@H](Cc1c[nH]c2ccccc12)C(=O)N[C@@H](CC(C)C)C(=O)N[C@H](C(=O)N[C@@H](CCCNC(=N)N)C(=O)N[C@@H](CCC(N)=O)C(=O)N[C@@H](CCCNC(=N)N)C(=O)N[C@@H](Cc1ccc(O)cc1)C(N)=O)[C@@H](C)O)C(C)C) [Compound 150]
> 5000 nM | > 5000 nM | > 5000 nM | 0.138 nM | 1.07 nM | Isovaleryl-APEK([Ahx-γGlu-C18 diacid])PEADATPEELQRYYVALRHYYNWLTRQRY-NH2 (SMILES CC(C)CC(=O)N[C@@H](C)C(=O)N1CCC[C@H]1C(=O)N[C@@H](CCC(=O)O)C(=O)N[C@@H](CCCCNC(=O)CCCCCNC(=O)CC[C@H](NC(=O)CCCCCCCCCCCCCCCCC(=O)O)C(=O)O)C(=O)N1CCC[C@H]1C(=O)N[C@@H](CCC(=O)O)C(=O)N[C@@H](C)C(=O)N[C@@H](CC(=O)O)C(=O)N[C@@H](C)C(=O)N[C@H](C(=O)N1CCC[C@H]1C(=O)N[C@@H](CCC(=O)O)C(=O)N[C@@H](CCC(=O)O)C(=O)N[C@@H](CC(C)C)C(=O)N[C@@H](CCC(N)=O)C(=O)N[C@@H](CCCNC(=N)N)C(=O)N[C@@H](Cc1ccc(O)cc1)C(=O)N[C@@H](Cc1ccc(O)cc1)C(=O)N[C@H](C(=O)N[C@@H](C)C(=O)N[C@@H](CC(C)C)C(=O)N[C@@H](CCCNC(=N)N)C(=O)N[C@@H](Cc1c[nH]cn1)C(=O)N[C@@H](Cc1ccc(O)cc1)C(=O)N[C@@H](Cc1ccc(O)cc1)C(=O)N[C@@H](CC(N)=O)C(=O)N[C@@H](Cc1c[nH]c2ccccc12)C(=O)N[C@@H](CC(C)C)C(=O)N[C@H](C(=O)N[C@@H](CCCNC(=N)N)C(=O)N[C@@H](CCC(N)=O)C(=O)N[C@@H](CCCNC(=N)N)C(=O)N[C@@H](Cc1ccc(O)cc1)C(N)=O)[C@@H](C)O)C(C)C)[C@@H](C)O) [Compound 136]
